How the values were obtained:
[1] = target: T1, NPR-B receptor positive cell line, NIH/3T3 (Mus musculus, UniProt Q6VVW5); test: Stimulation of cGMP production in NPR-B positive cells (cGMP ELISA); type: cell-based; settings: FIG. 7A
T1 construct: natrieuretic peptide type C receptor B (NPR-B) positive cell line, NIH/3T3 and the negative cell line of HEK293 cells; endogenous in cells; host or cells: NIH/3T3
T1 sequence (Q6VVW5 17-1047): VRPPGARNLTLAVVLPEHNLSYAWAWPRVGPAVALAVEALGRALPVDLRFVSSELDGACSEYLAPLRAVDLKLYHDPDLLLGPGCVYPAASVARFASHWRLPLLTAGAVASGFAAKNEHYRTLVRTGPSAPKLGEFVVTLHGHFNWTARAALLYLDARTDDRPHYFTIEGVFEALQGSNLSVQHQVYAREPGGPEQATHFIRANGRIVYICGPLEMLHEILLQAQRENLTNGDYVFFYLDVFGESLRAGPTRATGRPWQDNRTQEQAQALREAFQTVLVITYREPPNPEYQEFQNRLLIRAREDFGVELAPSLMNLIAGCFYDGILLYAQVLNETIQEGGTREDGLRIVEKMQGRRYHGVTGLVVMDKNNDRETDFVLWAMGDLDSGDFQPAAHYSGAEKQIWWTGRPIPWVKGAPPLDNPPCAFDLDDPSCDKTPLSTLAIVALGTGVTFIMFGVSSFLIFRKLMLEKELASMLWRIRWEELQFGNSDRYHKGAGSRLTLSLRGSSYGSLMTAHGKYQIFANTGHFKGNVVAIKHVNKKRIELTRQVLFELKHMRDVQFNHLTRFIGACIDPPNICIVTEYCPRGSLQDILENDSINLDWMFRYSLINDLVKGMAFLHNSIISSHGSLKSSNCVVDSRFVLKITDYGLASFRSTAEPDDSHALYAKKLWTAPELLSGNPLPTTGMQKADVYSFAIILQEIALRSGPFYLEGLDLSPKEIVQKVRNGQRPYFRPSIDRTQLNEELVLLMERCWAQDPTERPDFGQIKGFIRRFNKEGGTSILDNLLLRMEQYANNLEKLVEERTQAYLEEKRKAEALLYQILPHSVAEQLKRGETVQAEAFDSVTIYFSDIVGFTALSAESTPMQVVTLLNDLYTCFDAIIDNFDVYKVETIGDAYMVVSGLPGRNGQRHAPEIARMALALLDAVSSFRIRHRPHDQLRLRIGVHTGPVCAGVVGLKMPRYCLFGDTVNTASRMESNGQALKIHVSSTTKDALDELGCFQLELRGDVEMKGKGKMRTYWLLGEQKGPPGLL
Protocol: The biological function of these purified protein was assayed for their stimulation of production of cGMP, using NPR-B receptor positive cell line, NIH/3T3 and NPR-B negative cell line HEK293 cells. The determination of cGMP was assay by ELISA using commercial CNP as standard curves. […] Surface preparation. NBR-B was immobilized at different levels in three flow cells via standard amine coupling, leaving Fc 1 unmodified to serve as a reference. All surface plasmon resonance (SPR) analysis was performed on a BIAcore 3000 system using series CM5 sensor chips. Data processing and analysis were performed using BIAevaluation software. All sensorgrams were double referenced by subtracting the response on a reference flow cell and a blank sample. Human NPR-B (R&D system) was covalently attached to a CM5 chip via amine coupling. A surface density of 6600 RU was used for measurements with natriuretic peptides Sequential injections of CNP (0.5-8 nM) were performed at a flow rate of […] (300 s for each), followed by a dissociation time of 900 s. […] Kinetic parameters were calculated assuming a simple 1:1 (Langmuir) binding. […] Kinetic parameters were calculated assuming a simple 1:1 (Langmuir) binding. […] Kinetic parameters were calculated assuming a simple 1:1 (Langmuir) binding. […] Kinetic parameters were calculated assuming a simple 1:1 (Langmuir) binding. […]

Human NPR-B = target: T2, Human NPR-B (Homo sapiens, UniProt P20594); test: Biacore SPR kinetic affinity binding to immobilized NPR-B; settings: Table 32 summary of affinity
T2 construct: purchased R&D system
T2 sequence (P20594 23-458 limits assumed): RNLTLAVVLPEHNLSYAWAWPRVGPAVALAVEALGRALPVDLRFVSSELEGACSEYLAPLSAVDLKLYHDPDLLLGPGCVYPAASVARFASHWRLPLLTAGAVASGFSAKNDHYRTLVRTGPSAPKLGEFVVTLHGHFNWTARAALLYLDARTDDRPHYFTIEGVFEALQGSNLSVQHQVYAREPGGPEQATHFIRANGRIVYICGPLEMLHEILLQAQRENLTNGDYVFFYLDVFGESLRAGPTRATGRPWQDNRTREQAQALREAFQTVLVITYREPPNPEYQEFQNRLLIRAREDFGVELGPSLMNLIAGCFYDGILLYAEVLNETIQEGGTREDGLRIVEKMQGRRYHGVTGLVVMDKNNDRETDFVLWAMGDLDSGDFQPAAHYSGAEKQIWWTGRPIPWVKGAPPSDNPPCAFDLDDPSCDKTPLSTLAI
Protocol: The biological function of these purified protein was assayed for their stimulation of production of cGMP, using NPR-B receptor positive cell line, NIH/3T3 and NPR-B negative cell line HEK293 cells. The determination of cGMP was assay by ELISA using commercial CNP as standard curves. […] Surface preparation. NBR-B was immobilized at different levels in three flow cells via standard amine coupling, leaving Fc 1 unmodified to serve as a reference. All surface plasmon resonance (SPR) analysis was performed on a BIAcore 3000 system using series CM5 sensor chips. Data processing and analysis were performed using BIAevaluation software. All sensorgrams were double referenced by subtracting the response on a reference flow cell and a blank sample. Human NPR-B (R&D system) was covalently attached to a CM5 chip via amine coupling. A surface density of 6600 RU was used for measurements with natriuretic peptides Sequential injections of CNP (0.5-8 nM) were performed at a flow rate of […] (300 s for each), followed by a dissociation time of 900 s. […] Kinetic parameters were calculated assuming a simple 1:1 (Langmuir) binding. […] All SPR analysis was performed on a BIAcore 3000 system using series CM5 sensor chips. Data processing and analysis were performed using BIAevaluation software. All sensorgrams were double referenced by subtracting the response on a reference flow cell and a blank sample. Human NPR-B (R&D system) was covalently attached to a CM5 chip via amine coupling. A surface density of 3100 RU was used for measurements with natriuretic peptides Sequential injections of AMI263 (FC4-CNP) (0.125-2 nM) were performed at a flow rate of […] (300 s for each), followed by a dissociation time of 900 s. […] Kinetic parameters were calculated assuming a simple 1:1 (Langmuir) binding. […] All SPR analysis was performed on a BIAcore 3000 system using series CM5 sensor chips. Data processing and analysis were performed using BIAevaluation software. All sensorgrams were double referenced by subtracting the response on a reference flow cell and a blank sample. Human NPR-B (R&D system) was covalently attached to a CM5 chip via amine coupling. […] Kinetic parameters were calculated assuming a simple 1:1 (Langmuir) binding. […] All SPR analysis was performed on a BIAcore 3000 system using series CM5 sensor chips. Data processing and analysis were performed using BIAevaluation software. All sensorgrams were double referenced by subtracting the response on a reference flow cell and a blank sample. Human NPR-B (R&D system) was covalently attached to a CM5 chip via amine coupling. A surface density of 3100 RU was used for measurements with natriuretic peptides Sequential injections of AMI263 (FC4-CNP) (0.5-300 nM) were performed at a flow rate of […] (300 s for each), followed by a dissociation time of 900 s. […] Kinetic parameters were calculated assuming a simple 1:1 (Langmuir) binding. […] All SPR analysis was performed on a BIAcore 3000 system using series CM5 sensor chips. Data processing and analysis were performed using BIAevaluation software. All sensorgrams were double referenced by subtracting the response on a reference flow cell and a blank sample. Human NPR-B (R&D system) was covalently attached to a CM5 chip via amine coupling.

[2] = tested on: retinal ganglion cells (RGC); test: NMDA excitotoxicity mouse model: RGC count by retinal Flatmount; type: in vivo, C57BL/6); settings: AAV 4E+8 vg/eye IVT 28 days prior to NMDA
Protocol: This study was for evaluating the effect of adeno-associated viral (AAV) vectors on retinal ganglion cell protection following damage caused via N-methyl-D-aspartate (NMDA) administration in the mouse. […] Groups 7 and 8 were added to test a higher concentration of MK-801. […] This study was conducted in wild type mice (Mus musculus, C57BL/6).
300 μL of the 5 mM NMDA stock was combined with 300 μL of sterile PBS and 1 μL as injected on Day 0 for a final concentration of 2.5 mM NMDA.
300 μL of the 5 mM NMDA stock as combined with 300 μL of sterile-filtered MK-801 and 1 μL was injected on Day 0 for a final concentration of 2.5 mM NMDA/100 μM MK-801.
300 μL of the 5 mM NMDA stock was combined with 300 μL of sterile PBS and 1 μL was injected on Day 0 for a final concentration of 2.5 mM NMDA.
On Day −28 or Day 0 based on the experimental design, mice were given buprenorphine 0.01-0.05 mg/kg subcutaneously (SQ). Animals were then tranquilized for the intravitreal injections with ketamine/xylazine or inhaled isoflurane and one drop of 0.5% proparacaine HCl was applied to both eyes. The conjunctiva was gently grasped with Dumont #4 forceps, and the injection was made using a 33 G needle and a Hamilton syringe. After dispensing the syringe contents, the syringe needle was slowly withdrawn. Following the injection procedure, 1 drop of Ofloxacin ophthalmic solution was applied topically to the ocular surface with eye lube.
Eyes were enucleated and immediately fixed in 4% paraformaldehyde in phosphate-buffered saline (PBS) and stored overnight at 4° C. The following day, the eyes were transferred to cold immunocytochemistry (ICC) buffer (PBS containing 0.5% BSA and 0.2% Tween 20) until processing. Using a dissecting microscope, the eye was carefully trimmed of extraneous tissue at the limbus and, using fine curved scissors, the anterior chamber was removed. Retinas in the eye cup were rinsed with cold ICC buffer. Eye cups were placed in cold ICC buffer containing 1/100 rat anti-CNP36 (Groups 3-6 only; resuspended at 0.5 mg/mL in PBS) for 3 hours at 4° C. Eye cups were then washed extensively and stained with 1/200 donkey anti-rat Cy3 and 1/1,000 DAPI for 2-3 hours at 4° C. Groups 1 and 2 were stained with 1/500 TUJ-1 and 1/1000 DAPI, while Groups 7 and 8 were incubated with 1/1,000 DAPI alone. Eye cups were washed extensively but gently with cold ICC buffer. Using fine curved scissors and an eyelash knife, the retina was detached from the optic nerve head and removed from the RPE/choroid. Radial cuts were then made toward the center and retinas were flat mounted, covered, and sealed. 2D fluorescent microscopy images were acquired using an Olympus Bx63 upright fluorescent microscope. […] Images at 20× were acquired in 4 quadrants and a central 248.1×325.7 μm region was analyzed for RGC counts using Olympus cellSens and ImageJ software.
Groups 1 and 2 were stained with DAPI and TUJ-1 and images were captured at 20× (FIG. 10A). RGCs were counted in four quadrants, and cells/mm2 were averaged across each group.
Groups 3-8 were stained for DAPI and four images were captured for each retina at 20× approximately 600 μm from the optic nerve head. RGCs were counted in a central 248.1×325.7 μm region and cells/mm2 were averaged over each group (FIG. 10C).
The statistical analyses were performed on the Group 3-8 RGC data (one-way ANOVA followed by multiple comparisons using the Dunnett statistical hypothesis comparison).

## AMI088: purified fusion protein Fc1-(G4S)4-CNP36 (IgG1 Fc), SEQ ID NO: 133
[1]
  cGMP production stimulated by AAV vector encoded CNP or CNP-Fc: highest level of cGMP
Human NPR-B
  ka: 4.09E+07
  kd: 2.96E−05
[2]
  RGC counts compared to sham AAV + NMDA group: higher RGC counts

Source: patent publication US20250099622A1, “COMPOSITIONS AND METHODS FOR EXPRESSING THERAPEUTICS” (priority 2022, published 2025)
